These are literature values, as cited in paper PMC9917443.

Read-outs that look alike come from different tables or passages of the source.

Data set [1] has as its target GB1a SD1 (UniProt Q9UBS5).
Data set [2] addresses GB1a SD1 (UniProt Q9UBS5). The source holds these as a separate data set.
Data set [3] deals with GB1a SD1 (UniProt Q9UBS5). This is another data set of the same source.
Sequence of GB1a SD1 (Q9UBS5 30-96): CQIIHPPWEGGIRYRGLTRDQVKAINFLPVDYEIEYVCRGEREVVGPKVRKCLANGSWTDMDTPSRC

Sequence of sAPP (P05067 18-687): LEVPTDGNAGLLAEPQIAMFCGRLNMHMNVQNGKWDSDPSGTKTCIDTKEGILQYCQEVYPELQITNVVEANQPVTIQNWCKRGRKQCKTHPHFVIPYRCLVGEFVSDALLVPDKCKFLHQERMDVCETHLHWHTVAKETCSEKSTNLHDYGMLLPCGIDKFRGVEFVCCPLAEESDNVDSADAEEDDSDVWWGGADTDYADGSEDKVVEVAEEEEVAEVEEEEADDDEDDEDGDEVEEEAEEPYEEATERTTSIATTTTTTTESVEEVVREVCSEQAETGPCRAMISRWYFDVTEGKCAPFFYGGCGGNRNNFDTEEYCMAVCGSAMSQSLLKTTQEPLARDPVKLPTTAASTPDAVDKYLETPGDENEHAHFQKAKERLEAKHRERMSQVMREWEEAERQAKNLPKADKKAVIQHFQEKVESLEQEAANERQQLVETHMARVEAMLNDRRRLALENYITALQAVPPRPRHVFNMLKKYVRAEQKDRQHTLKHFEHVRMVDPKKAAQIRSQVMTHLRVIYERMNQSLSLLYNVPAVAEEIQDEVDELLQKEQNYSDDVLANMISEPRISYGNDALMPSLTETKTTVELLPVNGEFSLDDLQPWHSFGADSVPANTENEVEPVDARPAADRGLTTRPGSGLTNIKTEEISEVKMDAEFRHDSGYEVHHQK
Sequence of APP (P05067 18-770): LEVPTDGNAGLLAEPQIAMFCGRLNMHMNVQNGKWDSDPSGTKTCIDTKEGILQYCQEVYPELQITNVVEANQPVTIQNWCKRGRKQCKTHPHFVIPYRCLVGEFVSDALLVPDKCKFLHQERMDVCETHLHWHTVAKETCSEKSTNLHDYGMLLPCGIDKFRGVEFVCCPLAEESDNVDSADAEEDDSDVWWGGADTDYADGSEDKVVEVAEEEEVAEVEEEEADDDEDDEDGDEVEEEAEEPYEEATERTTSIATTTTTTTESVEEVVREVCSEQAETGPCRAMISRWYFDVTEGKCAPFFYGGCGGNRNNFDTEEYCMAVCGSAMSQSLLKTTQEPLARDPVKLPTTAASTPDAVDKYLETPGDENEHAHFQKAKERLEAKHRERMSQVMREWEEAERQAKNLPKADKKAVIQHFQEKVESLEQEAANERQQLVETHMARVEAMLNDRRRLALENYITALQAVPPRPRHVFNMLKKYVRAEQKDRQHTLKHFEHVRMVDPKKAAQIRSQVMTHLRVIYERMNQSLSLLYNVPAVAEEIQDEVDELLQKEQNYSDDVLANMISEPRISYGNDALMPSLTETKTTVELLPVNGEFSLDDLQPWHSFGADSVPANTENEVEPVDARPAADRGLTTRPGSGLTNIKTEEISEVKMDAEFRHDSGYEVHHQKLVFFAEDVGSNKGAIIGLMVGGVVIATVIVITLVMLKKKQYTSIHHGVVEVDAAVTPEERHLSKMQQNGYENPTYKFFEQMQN

In the case of “APP17 APP17 peptide (from UniProt P05067)”, in the data set with GB1a SD1 [1], the dissociation constant (Kd) (commonly a measure of binding affinity in units of concentration) was 810 nM.
Take APP (from UniProt P05067): in the data set with GB1a SD1 [2], the Kd is 183 nM.
Consider sAPP (from UniProt P05067), for which the Kd in the data set with GB1a SD1 [3] is 431 nM.
